Measured values taken from publication PMC5031558 (2016).
Numbering of substitutions follows the chain as printed.

T1: CYLD USP domain I790D (human, UniProt Q9NQC7 583-956, I790D)
T1 sequence: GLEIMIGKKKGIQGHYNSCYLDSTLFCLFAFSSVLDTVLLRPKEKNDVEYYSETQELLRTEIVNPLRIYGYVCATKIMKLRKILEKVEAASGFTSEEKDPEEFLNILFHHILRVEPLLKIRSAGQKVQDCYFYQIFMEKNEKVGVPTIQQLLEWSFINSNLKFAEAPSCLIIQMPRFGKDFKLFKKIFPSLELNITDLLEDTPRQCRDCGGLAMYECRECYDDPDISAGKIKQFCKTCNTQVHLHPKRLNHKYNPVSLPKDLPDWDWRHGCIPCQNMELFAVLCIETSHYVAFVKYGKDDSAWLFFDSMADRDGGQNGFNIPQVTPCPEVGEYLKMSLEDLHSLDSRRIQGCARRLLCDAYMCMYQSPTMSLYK

T2: CYLD USP domain L622D (human, UniProt Q9NQC7 583-956, L622D)
T2 sequence: T1 sequence with L40D, D208I

B1: CYLD USP domain (aa 583–956) (domain or fragment)
chain: T1 sequence with D208I
B2: SPATA2 PUB domain (aa 1–241) (domain or fragment)
chain: MGKPSSMDTKFKDDLFRKYVQFHESKVDTTTSRQRPGSDECLRVAASTLLSLHKVDPFYRFRLIQFYEVVESSLRSLSSSSLRALHGAFSMLETVGINLFLYPWKKEFRSIKTYTGPFVYYVKSTLLEEDIRAILSCMGYTPELGTAYKLRELVETLQVKMVSFELFLAKVECEQMLEIHSQVKDKGYSELDIVSERKSSAEDVRGCSDALRRRAEGREHLTASMSRVALQKSASERAAKD

How the values were obtained:
[1] = target: B2; assay: SPR; kinetic
[2] = target: B2; assay: SPR
[3] = target: CYLD ΔB-box (purified USP domain without the B-box) (human, UniProt Q9NQC7 592-950); assay: SPR; equilibrium
CYLD USP domain I790D [4] = target: T1, CYLD USP domain I790D; assay: SPR; kinetic
CYLD USP domain I790D [5] = target: T1, CYLD USP domain I790D; assay: SPR
CYLD USP domain L622D = target: T2, CYLD USP domain L622D; assay: SPR; equilibrium

Kd [1] [µM]	koff [2] [s⁻¹]	Kd [3] [µM]	Kd (CYLD USP domain I790D [4]) [µM]	koff (CYLD USP domain I790D [5]) [s⁻¹]	Kd (CYLD USP domain L622D) [µM]	Binder
0.084	0.02	–	–	–	–	B1
–	–	> 100	0.585	0.086	> 60	B2
